{"source": "IntAct's records for PubMed 20608975", "key": {"mmp14_human MMP14": {"biological_target": "mmp14_human MMP14 (UniProt P50281)"}, "gors2_rat Gorasp2 [1]": {"biological_target": "gors2_rat Gorasp2 (UniProt Q9R064)"}, "gors2_rat Gorasp2 [2]": {"biological_target": "gors2_rat Gorasp2 (UniProt Q9R064)", "remark": "listed apart in the source"}, "gors2_rat Gorasp2 [3]": {"biological_target": "gors2_rat Gorasp2 (UniProt Q9R064)", "remark": "listed apart in the source"}, "gors2_rat Gorasp2 [4]": {"biological_target": "gors2_rat Gorasp2 (UniProt Q9R064)", "remark": "listed apart in the source"}, "gors2_rat Gorasp2 [5]": {"biological_target": "gors2_rat Gorasp2 (UniProt Q9R064)", "remark": "listed apart in the source"}, "gors2_rat Gorasp2 [6]": {"biological_target": "gors2_rat Gorasp2 (UniProt Q9R064)", "remark": "listed apart in the source"}}}
{"substance": "Golgi reassembly-stacking protein 2 (Rattus norvegicus (Rat)) (from UniProt Q9R064) G2A", "values": [{"measurement": "effect of a mutation on the interaction", "setting": "mmp14_human MMP14", "value": "disrupting interaction"}]}
{"substance": "Matrix metalloproteinase-14 (Homo sapiens) (from UniProt P50281) C574A", "values": [{"measurement": "effect of a mutation on the interaction", "setting": "gors2_rat Gorasp2 [1]", "value": "decreasing interaction"}]}
{"substance": "Matrix metalloproteinase-14 (Homo sapiens) (from UniProt P50281) G566A", "values": [{"measurement": "effect of a mutation on the interaction", "setting": "gors2_rat Gorasp2 [2]", "value": "decreasing interaction"}]}
{"substance": "Matrix metalloproteinase-14 (Homo sapiens) (from UniProt P50281) H565A", "values": [{"measurement": "effect of a mutation on the interaction", "setting": "gors2_rat Gorasp2 [2]", "value": "decreasing interaction"}]}
{"substance": "Matrix metalloproteinase-14 (Homo sapiens) (from UniProt P50281) L571A", "values": [{"measurement": "effect of a mutation on the interaction", "setting": "gors2_rat Gorasp2 [3]", "value": "disrupting interaction"}]}
{"substance": "Matrix metalloproteinase-14 (Homo sapiens) (from UniProt P50281) L572A", "values": [{"measurement": "effect of a mutation on the interaction", "setting": "gors2_rat Gorasp2 [3]", "value": "disrupting interaction"}]}
{"substance": "Matrix metalloproteinase-14 (Homo sapiens) (from UniProt P50281) L578A", "values": [{"measurement": "effect of a mutation on the interaction", "setting": "gors2_rat Gorasp2 [4]", "value": "decreasing interaction"}]}
{"substance": "Matrix metalloproteinase-14 (Homo sapiens) (from UniProt P50281) L579A", "values": [{"measurement": "effect of a mutation on the interaction", "setting": "gors2_rat Gorasp2 [4]", "value": "decreasing interaction"}]}
{"substance": "Matrix metalloproteinase-14 (Homo sapiens) (from UniProt P50281) P568A", "values": [{"measurement": "effect of a mutation on the interaction", "setting": "gors2_rat Gorasp2 [5]", "value": "decreasing interaction"}]}
{"substance": "Matrix metalloproteinase-14 (Homo sapiens) (from UniProt P50281) Q575A", "values": [{"measurement": "effect of a mutation on the interaction", "setting": "gors2_rat Gorasp2 [1]", "value": "decreasing interaction"}]}
{"substance": "Matrix metalloproteinase-14 (Homo sapiens) (from UniProt P50281) R569A", "values": [{"measurement": "effect of a mutation on the interaction", "setting": "gors2_rat Gorasp2 [5]", "value": "decreasing interaction"}]}
{"substance": "Matrix metalloproteinase-14 (Homo sapiens) (from UniProt P50281) R570A", "values": [{"measurement": "effect of a mutation on the interaction", "setting": "gors2_rat Gorasp2 [5]", "value": "decreasing interaction"}]}
{"substance": "Matrix metalloproteinase-14 (Homo sapiens) (from UniProt P50281) R576A", "values": [{"measurement": "effect of a mutation on the interaction", "setting": "gors2_rat Gorasp2 [1]", "value": "decreasing interaction"}]}
{"substance": "Matrix metalloproteinase-14 (Homo sapiens) (from UniProt P50281) S577A", "values": [{"measurement": "effect of a mutation on the interaction", "setting": "gors2_rat Gorasp2 [4]", "value": "decreasing interaction"}]}
{"substance": "Matrix metalloproteinase-14 (Homo sapiens) (from UniProt P50281) T567A", "values": [{"measurement": "effect of a mutation on the interaction", "setting": "gors2_rat Gorasp2 [2]", "value": "decreasing interaction"}]}
{"substance": "Matrix metalloproteinase-14 (Homo sapiens) (from UniProt P50281) Y573A", "values": [{"measurement": "effect of a mutation on the interaction", "setting": "gors2_rat Gorasp2 [3]", "value": "disrupting interaction"}]}
{"substance": "Matrix metalloproteinase-15 (Homo sapiens), P51511 L658A", "values": [{"measurement": "effect of a mutation on the interaction", "setting": "gors2_rat Gorasp2 [6]", "value": "decreasing interaction"}]}
{"substance": "Matrix metalloproteinase-15 (Homo sapiens), P51511 L659A", "values": [{"measurement": "effect of a mutation on the interaction", "setting": "gors2_rat Gorasp2 [6]", "value": "decreasing interaction"}]}
{"substance": "Matrix metalloproteinase-15 (Homo sapiens), P51511 Y660A", "values": [{"measurement": "effect of a mutation on the interaction", "setting": "gors2_rat Gorasp2 [6]", "value": "decreasing interaction"}]}
